Data from patent US20140031294A1 (NOVOZYMES BIOPHARMA UK, published 2014).

Biological target: transferrin receptor on human erythroleukemic K562 cells (human, UniProt P02786 1-760)
Test: cell-based or functional assay

Chain of transferrin receptor on human erythroleukemic K562 cells (P02786 whole entry): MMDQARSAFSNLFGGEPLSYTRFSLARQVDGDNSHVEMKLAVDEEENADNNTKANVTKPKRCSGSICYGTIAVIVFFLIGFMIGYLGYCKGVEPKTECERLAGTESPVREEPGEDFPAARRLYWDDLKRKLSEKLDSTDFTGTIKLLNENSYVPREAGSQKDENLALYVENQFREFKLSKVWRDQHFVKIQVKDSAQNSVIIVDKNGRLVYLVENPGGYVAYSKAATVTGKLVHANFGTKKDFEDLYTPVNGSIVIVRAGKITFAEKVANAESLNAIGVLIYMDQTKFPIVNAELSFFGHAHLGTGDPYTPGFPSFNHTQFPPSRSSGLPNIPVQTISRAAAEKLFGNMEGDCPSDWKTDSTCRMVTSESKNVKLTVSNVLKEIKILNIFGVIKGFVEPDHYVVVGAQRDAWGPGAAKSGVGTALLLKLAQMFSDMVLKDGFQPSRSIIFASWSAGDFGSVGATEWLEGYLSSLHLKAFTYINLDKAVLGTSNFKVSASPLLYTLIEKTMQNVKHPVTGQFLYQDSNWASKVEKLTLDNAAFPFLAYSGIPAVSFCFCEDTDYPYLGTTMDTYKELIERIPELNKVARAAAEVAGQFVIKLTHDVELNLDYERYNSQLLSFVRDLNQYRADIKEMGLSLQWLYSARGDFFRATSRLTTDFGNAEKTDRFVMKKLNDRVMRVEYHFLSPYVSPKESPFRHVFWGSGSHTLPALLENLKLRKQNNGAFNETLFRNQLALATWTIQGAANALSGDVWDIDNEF

B1: recombinant transferrin (N413Q, N611Q) (ligand)
chain: VPDKTVRWCAVSEHEATKCQSFRDHMKSVIPSDGPSVACVKKASYLDCIRAIAANEADAVTLDAGLVYDAYLAPNNLKPVVAEFYGSKEDPQTFYYAVAVVKKDSGFQMNQLRGKKSCHTGLGRSAGWNIPIGLLYCDLPEPRKPLEKAVANFFSGSCAPCADGTDFPQLCQLCPGCGCSTLNQYFGYSGAFKCLKDGAGDVAFVKHSTIFENLANKADRDQYELLCLDNTRKPVDEYKDCHLAQVPSHTVVARSMGGKEDLIWELLNQAQEHFGKDKSKEFQLFSSPHGKDLLFKDSAHGFLKVPPRMDAKMYLGYEYVTAIRNLREGTCPEAPTDECKPVKWCALSHHERLKCDEWSVNSVGKIECVSAETTEDCIAKIMNGEADAMSLDGGFVYIAGKCGLVPVLAENYQKSDNCEDTPEAGYFAVAVVKKSASDLTWDNLKGKKSCHTAVGRTAGWNIPMGLLYNKINHCRFDEFFSEGCAPGSKKDSSLCKLCMGSGLNLCEPNNKEGYYGYTGAFRCLVEKGDVAFVKHQTVPQNTGGKNPDPWAKNLNEKDYELLCLDGTRKPVEEYANCHLARAPNHAVVTRKDKEACVHKILRQQQHLFGSQVTDCSGNFCLFRSETKDLLFRDDTVCLAKLHDRNTYEKYLGEEYVKAVGNLRKCSTSSLLEACTFRRP
Apparent Affinity (competition against 55Fe uptake from labelled plasma transferrin by K562 cells): 123 nM
